Biological target: HER2 (human, UniProt P04626 23-1255)
Test: cell-based or functional assay

EC50 in KHYG-1-CD16V cell-mediated cytolysis of BT-20 cells: 1.16 nM
B1: A49-F3′-TriNKET-Trastuzumab (bispecific antibody)
heavy: EVQLVESGGGLVKPGGSLRLSCAASGFTFSSYSMNWVRQAPGKGLEWVSSISSSSSYIYYADSVKGRFTISRDNAKNSLYLQMNSLRAEDTAVYYCARGAPMGAAAGWFDPWGQGTLVTVSSASTKGPSVFPLAPSSKSTSGGTAALGCLVKDYFPEPVTVSWNSGALTSGVHTFPAVLQSSGLYSLSSVVTVPSSSLGTQTYICNVNHKPSNTKVDKKVEPKSCDKTHTCPPCPAPELLGGPSVFLFPPKPKDTLMISRTPEVTCVVVDVSHEDPEVKFNWYVDGVEVHNAKTKPREEQYNSTYRVVSVLTVLHQDWLNGKEYKCKVSNKALPAPIEKTISKAKGQPREPQVCTLPPSRDELTENQVSLTCLVKGFYPSDIAVEWESNGQPENNYKTTPPVLDSDGSFFLYSWLTVDKSRWQQGNVFSCSVMHEALHNHYTQKSLSLSPG
chain: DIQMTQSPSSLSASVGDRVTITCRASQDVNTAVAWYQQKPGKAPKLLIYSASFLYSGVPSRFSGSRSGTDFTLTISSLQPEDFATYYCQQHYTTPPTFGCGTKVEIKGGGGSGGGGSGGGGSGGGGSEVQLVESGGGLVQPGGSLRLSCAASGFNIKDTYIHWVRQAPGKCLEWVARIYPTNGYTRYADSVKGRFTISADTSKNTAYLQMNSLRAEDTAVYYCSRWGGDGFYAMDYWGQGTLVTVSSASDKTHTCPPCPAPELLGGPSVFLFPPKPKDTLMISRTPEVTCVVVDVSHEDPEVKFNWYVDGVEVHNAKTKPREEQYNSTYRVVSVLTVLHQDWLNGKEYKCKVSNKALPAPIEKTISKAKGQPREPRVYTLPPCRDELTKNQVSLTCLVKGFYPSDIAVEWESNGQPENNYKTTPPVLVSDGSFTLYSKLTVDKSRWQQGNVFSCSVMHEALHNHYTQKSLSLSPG
light: DIQMTQSPSSVSASVGDRVTITCRASQGISSWLAWYQQKPGKAPKLLIYAASSLQSGVPSRFSGSGSGTDFTLTISSLQPEDFATYYCQQGVSFPRTFGGGTKVEIKRTVAAPSPPSDEQLKSGTASVVCLLNNFYPREAKVQWKVDNALQSGNSQESVTEQDSKDSTYSLSSTLTLSKADYEKHKVYACEVTHQGLSSPVTKSFNRGEC
EC50 in KHYG-1-CD16V cell killing of Hs578T cells: 0.376 nM | fold potency against trastuzumab in triggering NK cell-mediated killing of SKBR-3 cells: 2.5 fold
